The source of these data is patent publication US20200207868A1 (UNIVERSITY OF SASKATCHEWAN, published 2020).

The target in test [1] is HER3 (as used in the biolayer interferometry of Example 2) (UniProt P21860 20-643, limits assumed). Briefly: BLI. For orientation: In BLI a coated tip is dipped into the sample, and binding shifts an interference pattern.
In test [2] the target is T1, recombinant human HER3-Fc chimera protein (R&D Systems) (human, UniProt P21860 20-643).
T1 construct: extracellular domain; Bought from R&D Systems; also called recombinant human HER3 extracellular domain; recombinant HER3; not shown: Fc part of the purchased chimera
T1 sequence (P21860 20-643, change not shown): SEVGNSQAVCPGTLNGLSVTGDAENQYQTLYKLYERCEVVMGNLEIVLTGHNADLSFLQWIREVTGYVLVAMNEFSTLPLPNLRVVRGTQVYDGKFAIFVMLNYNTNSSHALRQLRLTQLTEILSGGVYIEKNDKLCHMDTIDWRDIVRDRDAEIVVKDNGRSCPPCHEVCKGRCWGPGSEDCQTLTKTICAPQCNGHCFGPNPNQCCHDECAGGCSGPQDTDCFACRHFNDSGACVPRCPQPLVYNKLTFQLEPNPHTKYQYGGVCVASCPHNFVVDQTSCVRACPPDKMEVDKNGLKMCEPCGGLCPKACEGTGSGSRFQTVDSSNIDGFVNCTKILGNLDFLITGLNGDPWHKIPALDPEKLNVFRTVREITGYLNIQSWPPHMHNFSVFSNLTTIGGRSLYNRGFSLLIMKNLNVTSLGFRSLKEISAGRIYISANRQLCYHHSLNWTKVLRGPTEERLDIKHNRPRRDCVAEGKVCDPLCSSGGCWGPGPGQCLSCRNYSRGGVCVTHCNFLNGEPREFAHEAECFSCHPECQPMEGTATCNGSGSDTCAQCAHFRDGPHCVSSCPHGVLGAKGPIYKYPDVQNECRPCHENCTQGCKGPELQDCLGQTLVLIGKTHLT
Nature of the test: BLI (Octet Red), antibody on AR2G sensor, HER3-Fc 10-263 nM, 1:1 fit. The protocol: Binding kinetics were measured using an Octet Red instrument (ForteBio, Menlo Park, Calif.), following the manufacturer's protocol. Binding assays were performed in 96-well microtiter plates at 30° C. with sample plate orbital motion agitation at 1000 rpm. All washes, dilutions, and measurements were performed in phosphate buffered saline (PBS), pH 7.4. The IgG and antibody fragments were immobilized on amine-reactive second generation (AR2G) sensors using the manufacturer's protocol at pH 5 followed by quenching with 1 M ethanolamine, pH 8.5. […] Binding was monitored by placing sensors into wells for 5 min, followed by dissociation in PBS for 10 min. KD, kON, and kOFF were determined with ForteBio Data Analysis software v7.1.0.33 through locally fitting the processed data using a 1:1 binding model.

In test [3] the target is T1, recombinant human HER3-Fc chimera …. Briefly: BLI, IRDye800CW-labeled antibody.

HER3 (as used in the biolayer interferometry of Example 2), sequence (P21860 20-643 limits assumed): as the sequence (P21860 20-643, change not shown) above

B1: anti-HER3 scFv (scFv)
scFv: SDIQMTQSPSSLSASVGDRVTITCRASQGISNYLAWYQQKPGKAPKLLIYAASSLQSGVPSRFSGSRSGTDFTLTISSLQPEDFATYYCQQYGWLPLTFGQGTKVEIKGGGGSGGGGSGGGGSEISEVQLVESGGGLVQPGGSLRLSCAASGFTFSSYGMHWVRQAPGKGLEWVAVISYDGSNKYYADSVKGRFTISRDNSKNTLYLQMNSLRAEDTAVYYCARTDPYSLGGYYFDYWGQGTLVTVSS
notes: VL-(GGGGS)3-VH of HER3-3, expressed in E. coli
As to B1, in test [1], the Kd (in general, the equilibrium constant for the complex coming apart) worked out at 21.6 nM; the koff (commonly the first-order rate constant of dissociation) came to 0.00127 s⁻¹; the kon (in general, the rate constant with which the complex forms) turned out to be 60400 M⁻¹ s⁻¹. Further, in test [2], the Kd amounted to 20 nM, the koff was 0.00054 s⁻¹ and the kon is 33000 M⁻¹ s⁻¹.

B2: anti-HER3 scFv labeled with IRDye800CW (scFv)
scFv: B1 scFv
modifications: IRDye800CW-NHS label, 1-2 dye molecules per fragment, sites not stated
notes: m4 labelled with IRDye800CW; also called IRDye800CW-labeled scFv
In the case of B2, the Kd in test [3] is 29 nM.

B3: anti-HER3 scFv-CH3 labeled with IRDye800CW (other)
chain: SDIQMTQSPSSLSASVGDRVTITCRASQGISNYLAWYQQKPGKAPKLLIYAASSLQSGVPSRFSGSRSGTDFTLTISSLQPEDFATYYCQQYGWLPLTFGQGTKVEIKGGGGSGGGGSGGGGSEISEVQLVESGGGLVQPGGSLRLSCAASGFTFSSYGMHWVRQAPGKGLEWVAVISYDGSNKYYADSVKGRFTISRDNSKNTLYLQMNSLRAEDTAVYYCARTDPYSLGGYYFDYWGQGTLVTVSSEPKSCDKTHTCPPCPGQPREPQVYTLPPSREEMTKNQVSLTCLVKGFYPSDIAVEWESNGQPENNYKTTPPVLDSDGSFFLYSKLTVDKSRWQQGNVFSCSVMHEALHNHYTQKSLSLSPGK
notes: also called IRDye800CW-labeled scFv-CH3
On to B3, for which the Kd in test [3] amounted to 2.1 nM.

B4: anti-HER3 diabody (other)
chain: SDIQMTQSPSSLSASVGDRVTITCRASQGISNYLAWYQQKPGKAPKLLIYAASSLQSGVPSRFSGSRSGTDFTLTISSLQPEDFATYYCQQYGWLPLTFGQGTKVEIKGGGGSEISEVQLVESGGGLVQPGGSLRLSCAASGFTFSSYGMHWVRQAPGKGLEWVAVISYDGSNKYYADSVKGRFTISRDNSKNTLYLQMNSLRAEDTAVYYCARTDPYSLGGYYFDYWGQGTLVTVSS
notes: VL-GGGGS-VH of HER3-3; bivalent (51.6 kDa), expressed in E. coli
For the molecule B4, in test [2], the Kd turned out to be 3 nM, the koff was 0.00044 s⁻¹ and the kon turned out to be 150000 M⁻¹ s⁻¹.

B5: anti-HER3 diabody labeled with IRDye800CW (other)
chain: B4 chain
modifications: IRDye800CW-NHS label, 1-2 dye molecules per fragment, sites not stated
notes: m5 labelled with IRDye800CW; also called IRDye800CW-labeled diabody
Regarding B5, the Kd in test [3] is 2.4 nM.
